# Laboratory results: IntAct's records for PubMed 31515488
# B1: Oxidative stress-induced growth inhibitor 1 (Homo sapiens), Q9UJX0 (parent)
# chain: MSSSRKDHLGASSSEPLPVIIVGNGPSGICLSYLLSGYTPYTKPDAIHPHPLLQRKLTEAPGVSILDQDLDYLSEGLEGRSQSPVALLFDALLRPDTDFGGNMKSVLTWKHRKEHAIPHVVLGRNLPGGAWHSIEGSMVILSQGQWMGLPDLEVKDWMQKKRRGLRNSRATAGDIAHYYRDYVVKKGLGHNFVSGAVVTAVEWGTPDPSSCGAQDSSPLFQVSGFLTRNQAQQPFSLWARNVVLATGTFDSPARLGIPGEALPFIHHELSALEAATRVGAVTPASDPVLIIGAGLSAADAVLYARHYNIPVIHAFRRAVDDPGLVFNQLPKMLYPEYHKVHQMMREQSILSPSPYEGYRSLPRHQLLCFKEDCQAVFQDLEGVEKVFGVSLVLVLIGSHPDLSFLPGAGADFAVDPDQPLSAKRNPIDVDPFTYQSTRQEGLYAMGPLAGDNFVRFVQGGALAVASSLLRKETRKPP
# Variants of: B1
# Settings: with htf4_human TCF12, Q99081
# Chain of htf4_human TCF12, Q99081 (Q99081 whole entry): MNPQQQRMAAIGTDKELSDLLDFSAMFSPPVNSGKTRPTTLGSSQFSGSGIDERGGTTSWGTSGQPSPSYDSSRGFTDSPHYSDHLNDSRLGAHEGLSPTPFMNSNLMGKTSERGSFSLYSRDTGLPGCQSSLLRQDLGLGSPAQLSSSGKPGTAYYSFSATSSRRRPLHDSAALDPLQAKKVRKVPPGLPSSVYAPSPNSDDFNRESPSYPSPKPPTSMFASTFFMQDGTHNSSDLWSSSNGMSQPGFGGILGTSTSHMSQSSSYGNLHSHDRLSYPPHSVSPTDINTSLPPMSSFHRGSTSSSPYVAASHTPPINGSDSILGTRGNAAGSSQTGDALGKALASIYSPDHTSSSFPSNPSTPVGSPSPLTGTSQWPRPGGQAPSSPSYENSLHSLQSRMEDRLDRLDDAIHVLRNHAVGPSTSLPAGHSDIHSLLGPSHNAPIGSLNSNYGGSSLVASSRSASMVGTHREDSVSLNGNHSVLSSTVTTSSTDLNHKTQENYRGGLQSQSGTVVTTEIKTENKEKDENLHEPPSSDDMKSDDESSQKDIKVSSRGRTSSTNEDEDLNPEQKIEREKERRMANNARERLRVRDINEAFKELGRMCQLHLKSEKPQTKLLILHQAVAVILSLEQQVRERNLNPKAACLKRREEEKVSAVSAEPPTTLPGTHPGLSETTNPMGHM
row,effect of a mutation on the interaction,Variant
1,with no effect,MSSSRKDHLGASSSEPLPVIIVGNGPSGICLSYLLSGYTPYTKPDAIHPHPLLQRKLTEAPGVSILDQDLDYLSEGLEGRSQSPVALLFDALLRPDTDFGGNMKSVLTWKHRKEHAIPHVVLGRNLPGGAWHSIEGSMVILSQGQWMGLPDLEVKDWMQKKRRGLRNSRATAGDIAHYYRDYVVKKGLGHNFVSGAVVTAVEWGTPDPSSCGAQDSSPLFQVSGFLTRNQAQQPFSLWARNVVLATGTFDSPARLGIPGEALPFIHHELSALEAATRVGAVTPASDPVLIIGAGLSAADAVLYARHYNIPVIHAFRRAVNDPGLVFNQLPKMLYPEYHKVHQMMREQSILSPSPYEGYRSLPRHQLLCFKEDCQAVFQDLEGVEKVFGVSLVLVLIGSHPDLSFLPGAGADFAVDPDQPLSAKRNPIDVDPFTYQSTRQEGLYAMGPLAGDNFVRFVQGGALAVASSLLRKETRKPP [D320N]
2,disrupting interaction strength,MSSSRKDHLGASSSEPLPVIIVGNGPSGICLSYLLSGYTPYTKPDAIHPHPLLQRKLTEAPGVSILDQDLDYLSEGLEGRSQSPVALLFDALLRPDTDFGGNMKSVLTWKHRKEHAIPHVVLGRNLPGGAWHSIEGSMVILSQGQWMGLPDLEVKDWMQKKRRGLRNSRATAGDIAHYYRDYVVKKGLGHNFVSGAVVTAVEWGTPDPSSCGAQDSSPLFQVSGFLTRNQAQQPFLLWARNVVLATGTFDSPARLGIPGEALPFIHHELSALEAATRVGAVTPASDPVLIIGAGLSAADAVLYARHYNIPVIHAFRRAVDDPGLVFNQLPKMLYPEYHKVHQMMREQSILSPSPYEGYRSLPRHQLLCFKEDCQAVFQDLEGVEKVFGVSLVLVLIGSHPDLSFLPGAGADFAVDPDQPLSAKRNPIDVDPFTYQSTRQEGLYAMGPLAGDNFVRFVQGGALAVASSLLRKETRKPP [S236L]

# Variants of: B1
# Settings: with itf2_human TCF4, P15884
# Chain of itf2_human TCF4, P15884 (P15884 whole entry): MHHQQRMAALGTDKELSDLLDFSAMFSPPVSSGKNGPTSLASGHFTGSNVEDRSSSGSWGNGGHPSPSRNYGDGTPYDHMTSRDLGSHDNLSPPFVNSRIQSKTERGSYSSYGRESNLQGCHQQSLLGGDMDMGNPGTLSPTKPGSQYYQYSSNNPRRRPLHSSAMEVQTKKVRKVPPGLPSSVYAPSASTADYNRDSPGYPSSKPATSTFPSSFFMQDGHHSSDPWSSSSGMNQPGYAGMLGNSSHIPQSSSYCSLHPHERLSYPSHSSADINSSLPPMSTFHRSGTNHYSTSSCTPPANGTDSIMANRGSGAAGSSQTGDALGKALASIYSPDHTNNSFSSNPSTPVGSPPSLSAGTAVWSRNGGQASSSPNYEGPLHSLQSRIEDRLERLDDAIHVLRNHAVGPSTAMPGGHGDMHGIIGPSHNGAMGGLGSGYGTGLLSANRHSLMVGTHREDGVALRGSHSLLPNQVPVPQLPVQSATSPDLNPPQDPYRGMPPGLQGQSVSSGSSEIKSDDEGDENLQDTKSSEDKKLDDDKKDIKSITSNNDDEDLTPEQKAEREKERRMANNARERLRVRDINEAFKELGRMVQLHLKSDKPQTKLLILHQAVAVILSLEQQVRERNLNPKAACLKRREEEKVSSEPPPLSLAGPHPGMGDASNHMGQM
row,effect of a mutation on the interaction,Variant
1,with no effect,MSSSRKDHLGASSSEPLPVIIVGNGPSGICLSYLLSGYTPYTKPDAIHPHPLLQRKLTEAPGVSILDQDLDYLSEGLEGRSQSPVALLFDALLRPDTDFGGNMKSVLTWKHRKEHAIPHVVLGRNLPGGAWHSIEGSMVILSQGQWMGLPDLEVKDWMQKKRRGLRNSRATAGDIAHYYRDYVVKKGLGHNFVSGAVVTAVEWGTPDPSSCGAQDSSPLFQVSGFLTRNQAQQPFSLWARNVVLATGTFDSPARLGIPGEALPFIHHELSALEAATRVGAVTPASDPVLIIGAGLSAADAVLYARHYNIPVIHAFRRAVNDPGLVFNQLPKMLYPEYHKVHQMMREQSILSPSPYEGYRSLPRHQLLCFKEDCQAVFQDLEGVEKVFGVSLVLVLIGSHPDLSFLPGAGADFAVDPDQPLSAKRNPIDVDPFTYQSTRQEGLYAMGPLAGDNFVRFVQGGALAVASSLLRKETRKPP [D320N]
2,with no effect,MSSSRKDHLGASSSEPLPVIIVGNGPSGICLSYLLSGYTPYTKPDAIHPHPLLQRKLTEAPGVSILDQDLDYLSEGLEGRSQSPVALLFDALLRPDTDFGGNMKSVLTWKHRKEHAIPHVVLGRNLPGGAWHSIEGSMVILSQGQWMGLPDLEVKDWMQKKRRGLRNSRATAGDIAHYYRDYVVKKGLGHNFVSGAVVTAVEWGTPDPSSCGAQDSSPLFQVSGFLTRNQAQQPFLLWARNVVLATGTFDSPARLGIPGEALPFIHHELSALEAATRVGAVTPASDPVLIIGAGLSAADAVLYARHYNIPVIHAFRRAVDDPGLVFNQLPKMLYPEYHKVHQMMREQSILSPSPYEGYRSLPRHQLLCFKEDCQAVFQDLEGVEKVFGVSLVLVLIGSHPDLSFLPGAGADFAVDPDQPLSAKRNPIDVDPFTYQSTRQEGLYAMGPLAGDNFVRFVQGGALAVASSLLRKETRKPP [S236L]

# Variants of: B1
# Settings: with ikzf3_human IKZF3, Q9UKT9
# Chain of ikzf3_human IKZF3, Q9UKT9 (Q9UKT9 whole entry): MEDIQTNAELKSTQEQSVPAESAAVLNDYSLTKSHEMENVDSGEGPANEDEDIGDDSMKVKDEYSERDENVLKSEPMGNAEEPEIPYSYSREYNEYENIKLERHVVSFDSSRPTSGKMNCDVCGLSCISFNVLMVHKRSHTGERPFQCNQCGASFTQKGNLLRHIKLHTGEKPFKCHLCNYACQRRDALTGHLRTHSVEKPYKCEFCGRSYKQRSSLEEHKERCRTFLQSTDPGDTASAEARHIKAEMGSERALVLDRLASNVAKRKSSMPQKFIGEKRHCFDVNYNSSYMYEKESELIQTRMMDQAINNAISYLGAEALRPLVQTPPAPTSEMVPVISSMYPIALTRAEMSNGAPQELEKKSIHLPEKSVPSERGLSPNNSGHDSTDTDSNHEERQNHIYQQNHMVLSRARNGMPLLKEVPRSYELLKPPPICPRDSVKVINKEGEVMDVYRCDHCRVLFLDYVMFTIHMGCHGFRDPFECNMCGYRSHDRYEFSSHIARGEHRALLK
row,effect of a mutation on the interaction,Variant
1,with no effect,MSSSRKDHLGASSSEPLPVIIVGNGPSGICLSYLLSGYTPYTKPDAIHPHPLLQRKLTEAPGVSILDQDLDYLSEGLEGRSQSPVALLFDALLRPDTDFGGNMKSVLTWKHRKEHAIPHVVLGRNLPGGAWHSIEGSMVILSQGQWMGLPDLEVKDWMQKKRRGLRNSRATAGDIAHYYRDYVVKKGLGHNFVSGAVVTAVEWGTPDPSSCGAQDSSPLFQVSGFLTRNQAQQPFSLWARNVVLATGTFDSPARLGIPGEALPFIHHELSALEAATRVGAVTPASDPVLIIGAGLSAADAVLYARHYNIPVIHAFRRAVNDPGLVFNQLPKMLYPEYHKVHQMMREQSILSPSPYEGYRSLPRHQLLCFKEDCQAVFQDLEGVEKVFGVSLVLVLIGSHPDLSFLPGAGADFAVDPDQPLSAKRNPIDVDPFTYQSTRQEGLYAMGPLAGDNFVRFVQGGALAVASSLLRKETRKPP [D320N]
2,disrupting interaction strength,MSSSRKDHLGASSSEPLPVIIVGNGPSGICLSYLLSGYTPYTKPDAIHPHPLLQRKLTEAPGVSILDQDLDYLSEGLEGRSQSPVALLFDALLRPDTDFGGNMKSVLTWKHRKEHAIPHVVLGRNLPGGAWHSIEGSMVILSQGQWMGLPDLEVKDWMQKKRRGLRNSRATAGDIAHYYRDYVVKKGLGHNFVSGAVVTAVEWGTPDPSSCGAQDSSPLFQVSGFLTRNQAQQPFLLWARNVVLATGTFDSPARLGIPGEALPFIHHELSALEAATRVGAVTPASDPVLIIGAGLSAADAVLYARHYNIPVIHAFRRAVDDPGLVFNQLPKMLYPEYHKVHQMMREQSILSPSPYEGYRSLPRHQLLCFKEDCQAVFQDLEGVEKVFGVSLVLVLIGSHPDLSFLPGAGADFAVDPDQPLSAKRNPIDVDPFTYQSTRQEGLYAMGPLAGDNFVRFVQGGALAVASSLLRKETRKPP [S236L]
